Source: the DeepSol protein solubility set

Experiment: soluble on expression in E. coli; label from the status in PepcDB or PDB records

Soluble on expression in E. coli, not soluble:
MSLDRVEVLGVEFVEFTADQTEAEALGSLLGAMGFRAVASHREKAVTLWRQGCDHRGINVVINTEQKGFAHSSYLVHGASAYAIGLKVPDASAAVERARALGAEIFLPESGEGEGAMAAIRGMGGGLIYFVDEIDDVWSREFVAPGDDRQPAATLVAIDHVAQSMKEEQLPSWLLFYTSILDADKLAQVDIVDPAGLVRSQVVENASGTLRLTLNGADNHREGHHHHHH, MSLDSKRYTFLLGPGQSCRTATDNFIALYDKRNSLEIKDIENAFNVEALSKEFFGKYKAQYEAFVNYMVDPTNGMRQHFIDTGFDHTGMAADKIRDREEKPIRDYVKKLLGRIVFLHFLQKKGWLGVPASKEWGEGDRDFMLNIFKNANERQKENFLDDILEDLFTEGLDRNRSDQGDLYDTKVEGFRNCRIPYLNGGLFERDILDKKPSHFPASYFNGLLTMLSQYNFTIDENDPNDAEVGVDPEMLGRIFENLLEDNKDKGAFYTPKEIVQYMCRESLIAYLQTDMREEDKECIRQFVTTHDASQLGELKEYIDQKLYDVKICDPAIGSGAFPMGLLRELFFCRSAIEPNIVENAANIKRHIIQNNIYGVDIERGAVDIARLRFWLSLIVDEKSPEALPNLDFKIMQGNSLLEQYKGVDLSTEGHHHHHH, MSLDVCRGMLCGFGAVCEPSVEDPGRASCVCKKNVCPAMVAPVCGSDASTYSNECELQRAQCNQQRRIRLLRQGPCGSRDPCANVTCSFGSTCVPSADGQTASCLCPTTCFGAPDGTVCGSDGVDYPSECQLLRHACANQEHIFKKFDGPCDPCQGSMSDLNHICRVNPRTRHPEMLLRPENCPAQHTPICGDDGVTYENDCVMSRIGAARGLLLQKVRSGQCQTRDQCPETCQFNSVCLSRRGRPHCSCDRVTCDGAYRPVCAQDGHTYDNDCWRQQAECRQQQTIPPKHQGPCDQTPSPCRGAQCAFGATCTVKNGKAVCECQRVCSGGYDPVCGSDGVTYGSVCELESMACTLGREIRVARRGPCDRCGQCRFGSLCEVETGRCVCPSECVESAQPVCGSDGHTYASECELHVHACTHQISLYVASAGHCQTCGETVCTFEGHHHHHH, MSLDWFTVDDSVLRVALVFPLQGSAGIFGPTCELCARLAAEEVNRAGGVLGKELRLLPVDGGAPPREIADRVAALVDLGVVQGVTGWHISSVRQALAPRIAHRVPYVYTALYEGGEHTAGVFLTSETPRDQLRPAMRLLARERGVRRWFVIGNDYVWPRRTARAAHSYARECGGSIGGEVYLPLGTHDFEPVLRRIERSDADAVLMLLVGSDAVRFNRAFAAAGLDGRCLRLSTLMDENMLLASGPAATADLYSTAGFFASLANQDTLDFHGRYAARYGVEAPALGSLGESCYEGVLLLAALIGRAGTLEVSAIGAAADTVSYEGPRGLLRLRGGHVRQRIYLARADGLDFDVVAELDLHSSRPEGHHHHHH, MSLEASLVKLSEQELTSLNYAFQQMRKPLQTINYDYAVWDRTYSYMKSNSASAKRYYEKHEYPDDTFKSLKVDGVFIFNRTNQPVFSKGFNHRNDIPLVFELTDFKQHPQNIALSPQTKQAHPPASKPLDSPDDVPSTHGVIATRYGPAIYSSTSILKSDRSGSQLGYLVFIRLIDEWFIAELSQYTAAGVEIAMADAADAQLARLGANTKLNKVTATSERLITNVDGKPLLKLVLYHTNEGHHHHHH, MSLEIDADRFFKLFDSSVQGLRQCRLISAAFELGVFKALEVPLSAGALAEKIGCDPALMPHFCEALHSLGLLDRFEEGISEEKENAQIAVKGTGEAEGKEKPGDEPGDRIKNDGAVYFVSELSATYLPGNSPFSQKHYLAERIRNVERWSRLPQIMRQGPDIVEKGPFFGEVVHCMAENARCGLLQETVRVVMENVDFTNVKKFLDLGGGHGLYSIALTSLNENLQAFVFDLPPVTSETRYFIDKYGASRVDIIPGDFFKDDIGSDYDVIFSSFNPGGKVPSLIPKIAAALKPEGVFITRQVPDESMKSSPLMSLDWNLWTFEDVKKGSSGYSFENSVLFSEYIDMLGNHGLEVFRALDMTDGSRIVFAWKVTEGHHHHHH, MSLEKSSRINGGKMNREEVKDSVLLGDSLEIMRRIDDCIYDLIFLDPPYYLQMTPKRLKRWNNRSVPQTVREYWDAFPSFEAYDSFISSVLKEAKRLMSDTSTIWAIGTYHNIFRIGKIMQDMGFWILNDVVWIKTNPMPNWLGVRFTNSTETLIWATKGKEQKNYTYNRNLAKEFGLGKTANNVWVMKTSRGNERVRDENRKSVHPAQKPLELMKRIILSSTKEGDLILDPFAGVGTTGVAASMLGRNFTLIEKDPVYYRAMLSRFSRFGIRYTEKIEGHHHHHH, MSLEMEKYLSVTTLTKYLKMKFDKDPYLERVYLTGQVSNFRKRPTHQYFSLKDDHAVIQATIWSGIYQKLGFDLEEGMKINVIGRVQVYEPSGSYSIIIEKVEPDGVGALAIQFEQLKKKLTEEGLFQERFKQALPQFSKRIGVVTSRSGAVIRDIITTVSRRFPGVDILLYPTKVQGEGAAEEIARNIARANQRDDLDLLIIGRGGGSIEDLWAFNEEIVVRAIFESRLPVISSVGHETDVTLADFVADRRAATPTAAAELATPVTKLDVLAHLQNQEKRMVTAVRNVLSKKQEALKKCSQSVIFRQPERLYDGYLQRLDQLQLRLKQSLRTRISDNKQLVQARTHQLVQLSPVTKIQRYQDRLGQLDKLLGSQMALVYDAKVAEAKRLSEALLMLDTSRIVARGYAIVKKEESVVDSVESLKKKDQVTLLMRDGQVELEVKDVKTKEIEGHHHHHH, MSLERAVPLAVPLGQTEVFQALQRLHMTIFSQSVSPCGKFLAAGNNYGQIAIFSLSSALSSEAKEESKKPVVTFQAHDGPVYSMVSTDRHLLSAGDGEVKAWLWAEMLKKGCKELWRRQPPYRTSLEVPEINALLLVPKENSLILAGGDCQLHTMDLETGTFTRVLRGHTDYIHCLALRERSPEVLSGGEDGAVRLWDLRTAKEVQTIEVYKHEECSRPHNGRWIGCLATDSDWMVCGGGPALTLWHLRSSTPTTIFPIRAPQKHVTFYQDLILSAGQGRCVNQWQLSGELKAQVPGSSPGLLSLSLNQQPAAPECKVLTAAGNSCRVDVFTNLGYRAFSLSEGHHHHHH, MSLESILDVLSVMYINAQLPREQRHRWRLLFSSELHGHSFSQLCGHITHRGPCVAVLEDHDKHVFGGFASCSWEVKPQFQGDNRCFLFSICPSMAVYTHTGYNDHYMYLNHGQQTIPNGLGMGGQHNYFGLWVDVDFGKGHSRAKPTCTTYNSPQLSAQENFQFDKMEVWAVGDPSEEQLAKGNKSILDADPEAQALLEISGHSRHSEGLREVPDDEGHHHHHH

Soluble on expression in E. coli, soluble:
MSLDNRFPVCINTMKLTMPKLEVYYPSIGGISDINVQKKMNNTILNLVYQMIEDQGYYKNTETTITGYFEIKNNQRGILSLTLSNYAFSGGAHGMTIMKSLTFNVETGEEYSLSQLFKPGSNYVKVLSELIKVQIRERDIPVIEEFCAIKPNQDFYIADKILVLYFQLYELVPYAYGFPQFPISVYTIQDIINEDGPLGRMLYEGHHHHHH, MSLDQPLTFYGLKSMSGAFASYGKYADMGSRLAIAEHPQLLGHPLKYKVIDTEGNAGKAVRKVQEAIGQDGARFFQGCTLSSSALAVSKEIHKAGGVFMTPVGADEITGKDCNASTFRWSVPTYGAIRETLVPMSRQLPQAKRWYTITPQYVFGDALLDNARKVFAELGVEHIGNSYHSLQEQEFSGYLTNAIAAKPDVLVLLNFGSQASNALRQAVNFGIKDRMKVLMVWSAGLDQFQELGSDVLEGVYLGAQYWHQVDTPLNKLLVAATRKAYGINPNYPLAADYIGTKVMLEAIVKAGSLDGAAVSAALQGMRFQGPTGEELIRPGDHQVLKDYYLLRGKPQGQMRDEDDLAEVISSGRSFVEVDHTGCALAEGHHHHHH, MSLDVINKYGTPLKLSYLPKISSQIQKAKQWFGEAITNNNYSGTYTYCYCTKSSHFSFVLNEALKNDIHIETSSAYDIPIVRILFENNKITKATNVICNGYKRPEYTDYICDLINEGFNCTPILDNLDEITAYEKGIETSCNLGIRLATDEEPKFEFYTSRLGFRYNDVVQFYKEKIEPNPKFKLKMLHFFINTGIKDTTYYWSELSRFVHMYCTMKKINPDMDSIDIGGGWPIKTSVHFEYDYKYMADQIVKTIKKVCDEEGVPTPNIFTEFGSFTVGESGAAVYSVLGSKLQNDKEEWYMIDSSFITTLPDVWGLSQKYLLLAVNGWDKPYKKVKLGGITCDSMDYYNSEAHQNLVFMPELDEKEPTYIGFFHTGAYQESLGGYGGIQHCLVPAPKHILIDKDADGNFSYNLFAPEQTKESMLKILGYKAEGHHHHHH, MSLDVNYVPQNTSDAPAIPSAALQQLTWTPVDQSKTQTTQLATGGQQLNVPGISGPVAAYSVPANIGELTLTLTSEVNKQTSVFAPNVLILDQNMTPSAFFPSSYFTYQEPGVMSADRLEGVMRLTPALGQQKLYVLVFTTEKDLQQTTQLLDPAKAYAKGVGNSIPDIPDPVARHTTDGLLKLKVKTNSSSSVLVGPLFGSSAPAPVTVGNTAAPAVAAPAPAPVKKSEPMLNDTESYFNTAIKNAVAKGDVDKALKLLDEAERLGSTSARSTFISSVKGKGEGHHHHHH, MSLEELLERVFSFSDVDKLIDFISYELQKPVILESADFFLLAYNSYYINHFDSANQQTIFSKKCPVQIFERFLKDGIIEKLKTEPEPFRVNKIESIGLNQRVVVSAKHKGEVMGYIWIQELDQNLTDEELDFLYETSFHVGKIIYKTNKLKQEKEEKAEDLIKRAIYQQFTSEKELRREAERINTVLPSMFSVVILHAANGDGEAVEDLKENIRSYLNLRDKVSHVLTIESNIVIVVASFSQKSSVSSAASEFINKLLTHFHFQKIPTPIYIGIGNEYNHLLKLGKSYTEALEVIKAAEITGNQENIPYEYAKLGIYRYLESIEQKNEFLEYENKDLALLKAKDEESSTELLKTLEVYLLNNCKTKPAAEQLFIHQNTLNYRIKQITEMTSIDLSDFRTRCQLYLDLMLMKKKEGGSHHHHHH, MSLEGEQHSRERDQQAIQYHYDVSNDFYKLWLDERMVYSCAYFPGGQETLDEAQTAKLDYICRKLQLRPGERLLDIGCGWGGLSLYAAQHYGVQVLGVTLSQAQLQEGQARVRVAGLEGQVQLELRDYRDVLSRGPAQFDKIASVGMAEHVGRRNMPEYFRSAYAALKPGGLMLNHAIGDGIGQARVPMWLQSGNFARKYVFPDGELLPVWETLKYASEQLFEVRDVENLREHYALTIGHWAARLEAHRPEALALLGEERLRLWRLYLGATSYYFRKGHLTLFQSLLAKPDAERAVPLPLSRAGLYREGHHHHHH, MSLENGVLKVGLCAAWPPFESRNETTGEIEGFDVDLAKALGEELGVEVEIIDAEWQALLGGLSKGDYDTLITCMSKKEASVENVEMSDVYYELNDVIVVRNDNNEINSVSDLSGKIVGVQLGSGSEQAVDALSGIQEIKRYNYNPEAMIDLQNNRSDAVVVGYTYALSEISKYPDLKVLDTPVASAEIVMVQKEGAEELTAKLNEALSNIKENGKYDEIQDKWLSLEEGHHHHHH, MSLERPEEYLPNIFEGKKGVIVDYGCGNGFYCKYLLEFATKLYCIDINVIALKEVKEKFDSVITLSDPKEIPDNSVDFILFANSFHDMDDKQHVISEVKRILKDDGRVIIIDWRKENTGIGPPLSIRMDEKDYMGWFSNFVVEKRFNPTPYHFGLVLKRKTSEGHHHHHPDPNSSSVDKLAAALEHHHHHH, MSLESIQSSLKHMTGNRSFEKQFTQLKEAVFRSPHVQLFLEEHPSLSPITLEQGLSKLYEYQKEQSHCAHCPGLQKCPNLMKGYQPTLYVERDSLELSYSPCPLKEEEEREKKKRSLIRSLYIPKEILEAKFDDVESEPGRSIASHRALEFALSAKPGEDGMGLYLYGKFGVGKTFLMGAIANELKDRGIDSTIVYVPDFFRELKQSIGDGTFQQKLDFVKNAQVLIFDDIGAETMTSWVRDDVLGVILQYRIMEKLPTLFTSNYDYDELEEHLAYNDKSGTELLKAKRVMERIRHYTVSVMVQGQNRREHQSEGHHHHHH
